Measurements reported in the nanobody polyreactivity screen of Harvey et al. (2022).

Test: yeast display, Sf9 membrane polyspecificity reagent, FACS + sequencing; frameworks hold sequencing errors
How it was run: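 After 36–48 hours of galactose induction, yeast (Saccharomyces cerevisiae BJ5465) displaying a synthetic nanobody library were stained at 4 °C for 1 hour with 10% biotinylated, detergent-solubilized Sf9 membrane reagent. Streptavidin microbeads enriched the stained cells before FACS sorting into low and high (top ~1%) gates on anti-HA and streptavidin fluorescence. Each clone's polyreactivity label reflects its gate of origin.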

QVQLVESGGGLVQAGGSLRLSCAASGITSRPYVMGGYRQAPGKERELVAAISLTGGRTYYADSVKGRFTISRDNAKNTVYLQMNSLKPEDTAVYYCAAKYSNGSGFDYWGQGTQVTVSS
polyreactivity (PSR sort gate): high polyreactivity

QVQLVESGGGLVQAGGSLRLSCAASGRILAYYAMGWYRQAPGKERELVAAITSGGRTYYADSVKGRFTISRDNAKNTVYLQMNSLKPEDTAVYYCNAVYGYWYGSWGQGTQVTVSS
polyreactivity (PSR sort gate): high polyreactivity

QVQLVESGGGLVQAGGSLRLSCAASGSIFWFNAMGWYRQAPGNERELVATIRYSGGSTYYADSVKGRFTISRDNAKNTVYLQMNSLKPEDTAVYYCAAVSRYSRSGYEYWGQGTQVTVSS
polyreactivity (PSR sort gate): high polyreactivity

QVQLVESGGGLVQAGASLRLSCAASGSIFSGYTMGWYRQAPGKERELVAGISYRGGSTYYADSVKGRFTISRDNAKNTVYLQMNSLKPEDTAVYYCAALYYRRGSLNYEYWGQGTQVTVSS
polyreactivity (PSR sort gate): high polyreactivity

QVQLVESGGGLVQAGGSLRLSCASSGSTFPRNAMGWYRQAPGKERELVAAITRSGANTHYADSVKGRFTISRDNAKNTVYLQMNSLKPEDTAVYYCAARSFTAYLGYYWGQGTQVTVSS
polyreactivity (PSR sort gate): high polyreactivity

QVQLVESGGGLVQAGGSLRLSCAASGSIFGYNTMGWYRKAPGKERELVAAISYRGGSTSADSVKGRFSISRDNAKNTVYLQMNSRKPEDTAVYSCATRSIVGYRYSGYDYWGQATQVTVSS
polyreactivity (PSR sort gate): high polyreactivity

QVQLVESGGGLVQAGGSLRLSCAASGSTFGYNAMGWYRQAPGKERELVAAISRSGGRTYYADSVKGRFTISRDNAKNTVYLQMNSLKPEDTAVYFCATYYTNKVPARYYWGQGTQVTVSS
polyreactivity (PSR sort gate): high polyreactivity

QVQLVESGGGLVQAGGSLRLSCAASGSTFWTYTMGWYRQAPGKERELVAVISSTGGDTYYADSVKGRFTISRDNAKNTVYLQMNSLKPEDTAVYYCAARIRRWYAGYGGYYWGQGTQVTVSS
polyreactivity (PSR sort gate): high polyreactivity

QVQLVESGGGLVQAGGSLRLSCAASGRTFRTYAMGWYRQAPGKERELVAVITVNSASTYYADSVKGRFTISRDYAKNTVYLQMKSLKPEDTAVYYCADYFIYGYWGQGTQVTVSS
polyreactivity (PSR sort gate): low polyreactivity

QVQLVESGGGLVQAGGSLRLSCAASGSIIKPYAMGWYRQAPGKERELVAAIRSSGGRTNYADSVKGRFTISRDNAKNTVYLQMNSLKPEDTAVYYCAKRYYGRKYYYWGQGTHVTVSS
polyreactivity (PSR sort gate): high polyreactivity

QVQLVESGGGLVQAGGSLRLSCAASGRTFYSYAMGWYSQAPGKERELVATISSNADGTYYADSVKGRFTISRDNAKNTVYLQMNSLKPEDTAVYYCAATYRRSHRYNYWGQGTQVTVSS
polyreactivity (PSR sort gate): high polyreactivity

QVQLVESGGGLVQAGGSLRLSCAASGLTFGHYAMGWYRPAPGKERELVAAITSGGRTYYADSVKGRFTISRDNAKYTVYLQMNSLKPEDTAVYYCATRGPRYRYYYWGQGTQVTVSS
polyreactivity (PSR sort gate): high polyreactivity

QVQLVESGGGLVQAGGSLRLSCAASGRIFDVNAMGWYRQAPGKERELVAAIRSGGRTNYADSVNGRFTISRDNAKNTVYLQMNSLKPEDTAVYYCAAVVWSSLDDYWGQGTQVTVSS
polyreactivity (PSR sort gate): high polyreactivity

QVQLVESGGGLVQAGGSLRLSCAASGSIFGRYGMGWYRQAPGKERELVAAITSGTRTNYADSVKGRFTISRDNAKNTVYLQMNSLKPEDTAVYYCNALRLRGNYEYGYWGHGTQVTVSS
polyreactivity (PSR sort gate): low polyreactivity

QVQLVESGGGLVQAGGSLRLSCAASGYTLDNYAMGWYRQAPGKERELVAGITFSGGSTFYADSVKGRFTISRDNAKNTVYLQMNSLKPEDTAVYYCAADAEFQADHKYGYWGQGTQVTVSS
polyreactivity (PSR sort gate): low polyreactivity

QVQLVESGGGLVQAGGSLRLSCAASGRTFPRYTMGWYRPAPGKERELVAASATGGSTYYADSVKGRFTISRDNAKNTVYLQMNSLKPEDTAVYYCAARPYSNRYVLGVYYWGQGTQVTVSS
polyreactivity (PSR sort gate): high polyreactivity

QVQLVESGGGLVQAGGSLRLSCAASGRTFTSYAIGWYRQAPGKERELVAAISGSGSRTKYADSVKGRFTISRDNAKNTVYLQMNSLKPEDTAVYYCNADYRHRHDYWGQGTQVTVSS
polyreactivity (PSR sort gate): high polyreactivity

QVQLVESGGGLVQAGGSLRLSCAASGSTFSRYAMGWYRQAPGKERELVAAISRSGGSTYYADSVKGRFTISRDNAKNTVYLQMNSLKPEDTAVYYCAKVTTYVSAWQGNGYWGQGTQVTVSS
polyreactivity (PSR sort gate): high polyreactivity

QVQLVESGGGLVQAGGSLRLSCAASGRIFNGYAMGWYRQAPGKERELVAAISVSGGSTYYADSVKGRFTISRDNAKNTVYLQMNSLKPEDTAVYYCAARTSSYSFPYAYNYWGQGTQVTVSS
polyreactivity (PSR sort gate): high polyreactivity

QVQLVESGGGLLQAGGSLRLSCAASGRTFRYYAMGWYRQAPGKERELVAAISSGGSSTYYADSVKGRFTISRDNAKNTVYLQMNSLKPEDTAVYYCAAGYYPFNYWGQGTQVTVSS
polyreactivity (PSR sort gate): high polyreactivity

QVQLVESGGGLVQAGGSLRLSCAASGRISPKNAMGWYRQAPGKERELVATIRKIGGRTYYADSVKGRFTISRDNAKNTVYLQMNSLKPEDTAVYYCATDFAPSYYPDRFDYWGQGTQVTVSW
polyreactivity (PSR sort gate): low polyreactivity

QDQLVESGGGLVQAGGSLRLSCAASGSIFAGYVMGWYRQAPGKERELVASISSGTGTFYADSVKGRFTISRDNAKNTVYLQMNSLKPEDTAVYYCAAESYRTVQFIRSRWRYTYDYWGQGTQVTVSS
polyreactivity (PSR sort gate): low polyreactivity

QVQLVESGGGLVQAGGSLRLSCSASGRIFDKYTMGWYRQAPGKERELVATITRGGVSTYYADSVKGRFTISRDNAKNTVYLQMTSLKPEDTAVYYCNAVWRLRVRYGYWGQGTQVTVSS
polyreactivity (PSR sort gate): high polyreactivity

QVQLVESGGGLVQAGGRLRLSCAAYGRTFSDYTMGWYRQAPGKERELVAAISRRGGTTYYADSVKGRFTISRDNAKNTVYLQMNSLKPEDTAVYYCAAKRYRPKYEYDYWGQGTQVTVSS
polyreactivity (PSR sort gate): high polyreactivity

QVQLVESVGGLVQAGGSLRLSCAASGSTFKYYAMGWYRPAPGKERELVAAITYSGGRTYYADSVKGRFTISRDNAKNTVYLQMNSLNPEDTAGYYCAARRGREDDYWGQGTQVTVSS
polyreactivity (PSR sort gate): low polyreactivity

QVQLVESGGGLVQAGGSLRLSCAASARIFVINAMGWYRQAPGKERELVADITWSGGSTYADSVKGRFTISRDNAKNTVYLQMYSLKPEDTAVYYCAAVTFVPRSTNGISLYDYWGQGTQVTVSS
polyreactivity (PSR sort gate): high polyreactivity

QVQLVESGGGLVQAGGSLRLSCAASGIIFYRNTMGWYRQAPGKERELVASISRGGSTNYADSVKGRFTISRDNAKNTVYLQMNSLKPEDTAVYYCAAYTYIPLSYYRGYTMDYWGQGTQVTVSS
polyreactivity (PSR sort gate): low polyreactivity

QVQLQESGGGLVQGGGSLRLSCAASGSNYRSWYMGWYRQAPGKERELVASITEGATTNYAYSVKAALPLAAITRNSVYRQMDSMKPEDTAVYYRGASFGSTYDLVYWGQGTQVTVSS
polyreactivity (PSR sort gate): high polyreactivity

QVQLVESGGGLVQAGGSLRLSCAASGFTFAYYAMGWYRQAPGKERELVAAISERGGSTYYADSVKGRFTISRDNAKNTVDLQMNSLKPEDTAVYYCARTFWDSPWYQSSYYSWGQGTQVTVSS
polyreactivity (PSR sort gate): low polyreactivity

QVQLVESGGGLVQAGGSLRLSCAASGSIFRLYAMGWYRPAPGKERELVAAISRRGGSTNYADSVKGRFTISRDNAKNTVNLQMNSLKPEDTAVYYCNAVSKRSRYDYWGQGTQVTVSS
polyreactivity (PSR sort gate): high polyreactivity

QVQLVESGGGLVQAGGSLRLSCAASGIFLKYAKGWYRPAPGKERELVPAIRKRGGSTYYADSVKGRFTISRDNAKNTVYLQMNSLKPEDTAVYYCATRYTYHPGSAGFDYWGQGTQVTVSS
polyreactivity (PSR sort gate): high polyreactivity

QVQLVESGGGLVQAGGSLRLSWAASGRTLWYYTMGWYRQAPGKERELLAGITVSGGSTYYADSVKGRFTISRDNAKNTVYLQMNSLKPEDTAVYYCADGYYSTWKQASRYRYYYWGQGTQVTVSS
polyreactivity (PSR sort gate): high polyreactivity
